The assay concerns the target HLA-A*24 (peptide-receptive MHC class I monomer of the UV-ligand exchange assay) (human). Briefly: UV-ligand exchange with anti-b2m ELISA.
The molecule AYTLIAPNI [Peptide SEQ ID NO: 169 (…)] yielded a peptide exchange yield of 50 to 75%.

Take EYPLVINTL [Peptide SEQ ID NO: 219 (…)]: the peptide exchange yield was 50 to 75%.

As for EYQENFLSF [Peptide SEQ ID NO: 206 (…)], the peptide exchange yield is 50 to 75%.

As for RFHPTPLLL [Peptide SEQ ID NO: 193 (…)], the peptide exchange yield was more than 75%.

Molecule IFPQFLYQF [Peptide SEQ ID NO: 186 (…)] returned a peptide exchange yield of more than 75%.

For IYLVSIPEL [Peptide SEQ ID NO: 161 (…)], the peptide exchange yield was more than 75%.

In the case of VYGFQWRHF [Peptide SEQ ID NO: 276 (…)], the peptide exchange yield is more than 75%.

On to VYTLDIPVL [Peptide SEQ ID NO: 160 (…)], for which the peptide exchange yield is more than 75%.

Regarding TYIESASEL [Peptide SEQ ID NO: 279 (…)], the peptide exchange yield was in the range of 50 to 75%.

Regarding KYTSWYVAL [Peptide SEQ ID NO: 228 (…)], the peptide exchange yield was more than 75%.

For QYSSVFKSL [Peptide SEQ ID NO: 216 (…)], the peptide exchange yield was more than 75%.

VYEDQVGKF [Peptide SEQ ID NO: 170 (…)] gave a peptide exchange yield of 20 to 49%.

WYVNGVNYF [Peptide SEQ ID NO: 189 (…)] showed a peptide exchange yield of 20 to 49%.

LYLDKATLI [Peptide SEQ ID NO: 198 (…)]: the peptide exchange yield lay in the range of 50 to 75%.

In turn, VFKASKITF [Peptide SEQ ID NO: 191 (…)] had a peptide exchange yield of 50 to 75%.

VFQNFPLLF [Peptide SEQ ID NO: 184 (…)] gave a peptide exchange yield of more than 75%.

In turn, LFIPSSKLLFL [Peptide SEQ ID NO: 171 (…)] displayed a peptide exchange yield of 50 to 75%.

In the case of IYKVGAPTI [Peptide SEQ ID NO: 185 (…)], the peptide exchange yield lay within 50 to 75%.

Regarding AYLHSHALI [Peptide SEQ ID NO: 274 (…)], the peptide exchange yield was more than 75%.

Consider RYPDNLKHLYL [Peptide SEQ ID NO: 280 (…)], for which the peptide exchange yield is more than 75%.

YYLEVGKTLI [Peptide SEQ ID NO: 211 (…)]: the peptide exchange yield is more than 75%.

In turn, TYTTVPRVAF [Peptide SEQ ID NO: 172 (…)] had a peptide exchange yield of more than 75%.

For the molecule IYDDSFIRPVTF [Peptide SEQ ID NO: 180 (…)], the peptide exchange yield lay within 50 to 75%.

IYQLDTASI [Peptide SEQ ID NO: 182 (…)]: the peptide exchange yield was in the range of 50 to 75%.

With EFGSLHLEFL [Peptide SEQ ID NO: 194 (…)], the peptide exchange yield was less than 20%.

SYALLTYMI [Peptide SEQ ID NO: 192 (…)] registered a peptide exchange yield of more than 75%.

TYGDAGLTYTF [Peptide SEQ ID NO: 283 (…)] showed a peptide exchange yield of 50 to 75%.

On to GFFIFNERF [Peptide SEQ ID NO: 190 (…)], for which the peptide exchange yield fell in the range of 50 to 75%.

With EYINQGDLHEF [Peptide SEQ ID NO: 275 (…)], the peptide exchange yield is 50 to 75%.

LYLDIINLF [Peptide SEQ ID NO: 181 (…)] gave a peptide exchange yield of more than 75%.

In turn, YFDKVVTL [Peptide SEQ ID NO: 215 (YFDKVVTL)] had a peptide exchange yield of 20 to 49%.

In turn, VFTSTARAF [Peptide SEQ ID NO: 183 (…)] gave a peptide exchange yield of 50 to 75%.

The molecule KYMVYPQTF [Peptide SEQ ID NO: 267 (…)] had a peptide exchange yield of more than 75%.

For the molecule FFPPTRQMGLLF [Peptide SEQ ID NO: 217 (…)], the peptide exchange yield is more than 75%.

VYVSDIQEL [Peptide SEQ ID NO: 288 (…)] registered a peptide exchange yield of 50 to 75%.

Regarding LYNKGFIYL [Peptide SEQ ID NO: 159 (…)], the peptide exchange yield was more than 75%.

VFTRVSSFL [Peptide SEQ ID NO: 162 (…)] returned a peptide exchange yield of 50 to 75%.

The molecule NYINRILKL [Peptide SEQ ID NO: 167 (…)] gave a peptide exchange yield of more than 75%.

With IFLDYEAGTLSF [Peptide SEQ ID NO: 227 (…)], the peptide exchange yield was more than 75%.

Turning to DYTTWTALL [Peptide SEQ ID NO: 165 (…)], the peptide exchange yield was more than 75%.

RYLNKAFHI [Peptide SEQ ID NO: 284 (…)] gave a peptide exchange yield of 50 to 75%.

For the molecule KFVDSTFYL [Peptide SEQ ID NO: 282 (…)], the peptide exchange yield is more than 75%.

TYIKPISKL [Peptide SEQ ID NO: 273 (…)] displayed a peptide exchange yield of 50 to 75%.

As for IFIEVFSHF [Peptide SEQ ID NO: 178 (…)], the peptide exchange yield is 50 to 75%.

For TYTQDFNKF [Peptide SEQ ID NO: 208 (…)], the peptide exchange yield was in the range of 50 to 75%.

RYISDQLFTNF [Peptide SEQ ID NO: 278 (…)] returned a peptide exchange yield of more than 75%.

IYTMIYRNL [Peptide SEQ ID NO: 210 (…)] returned a peptide exchange yield of more than 75%.

In the case of YYVESGKLF [Peptide SEQ ID NO: 166 (…)], the peptide exchange yield is more than 75%.

Regarding LYLKLWNLI [Peptide SEQ ID NO: 214 (…)], the peptide exchange yield is 50 to 75%.

Molecule KYIPYKYVI [Peptide SEQ ID NO: 223 (…)] registered a peptide exchange yield of 50 to 75%.

FYSRLLQKF [Peptide SEQ ID NO: 203 (…)] showed a peptide exchange yield of 50 to 75%.

The molecule DYLKGLASF [Peptide SEQ ID NO: 163 (…)] showed a peptide exchange yield of more than 75%.

For the molecule VHIPEVYLI [Peptide SEQ ID NO: 205 (…)], the peptide exchange yield fell in the range of 50 to 75%.

In the case of TYLRDQHFL [Peptide SEQ ID NO: 187 (…)], the peptide exchange yield is more than 75%.

LYHDIFSRL [Peptide SEQ ID NO: 271 (…)] displayed a peptide exchange yield of more than 75%.

Molecule HYSQELSLLYL [Peptide SEQ ID NO: 158 (…)] returned a peptide exchange yield of more than 75%.

VYRDETGELF [Peptide SEQ ID NO: 226 (…)] came in with a peptide exchange yield of 50 to 75%.

Molecule RYPDNLKHL [Peptide SEQ ID NO: 286 (…)] gave a peptide exchange yield of 20 to 49%.

The molecule KYPVEWAKF [Peptide SEQ ID NO: 289 (…)] showed a peptide exchange yield of more than 75%.

VYPWLGALL [Peptide SEQ ID NO: 177 (…)] came in with a peptide exchange yield of more than 75%.

On to MYDSYWRQF [Peptide SEQ ID NO: 179 (…)], for which the peptide exchange yield was more than 75%.

On to YYVYIMNHL [Peptide SEQ ID NO: 225 (…)], for which the peptide exchange yield is 50 to 75%.

Take KFSSFSLFF [Peptide SEQ ID NO: 164 (…)]: the peptide exchange yield lay within 50 to 75%.

Molecule KYQDILETI [Peptide SEQ ID NO: 168 (…)] came in with a peptide exchange yield of more than 75%.

Take QYLENLEKL [Peptide SEQ ID NO: 224 (…)]: the peptide exchange yield fell in the range of 50 to 75%.

Take RYFKGLVF [Peptide SEQ ID NO: 188 (RYFKGLVF)]: the peptide exchange yield fell in the range of 50 to 75%.

Consider RYSTGLAGNLL [Peptide SEQ ID NO: 221 (…)], for which the peptide exchange yield is 50 to 75%.

The molecule QYLQDAYSF [Peptide SEQ ID NO: 272 (…)] displayed a peptide exchange yield of more than 75%.

These data come from patent US20170189511A1.
